Assay results published in US12630600B2 (MEDIMMUNE LIMITED, priority 2022, dated 2026).
Starred links: 1 amine or outer side, 2 acyl side, 3 side chain; linkers in the order of their positions; H or OH if unused. Non-standard residues stand in square brackets, D forms with d. Groups on a side chain read outwards from the residue. No end group written: not given here. *: point of attachment. β‑dimethylGln = β-dimethylglutamine, CC(C)(CC(N)=O)[C@H](N[*:1])C(=O)[*:2]; C20 diacid = O=C(O)CCCCCCCCCCCCCCCCCCC(=O)*; C18 diacid = O=C(O)CCCCCCCCCCCCCCCCC(=O)*; γGlu = O=C(O)[C@H](CCC(=O)[*:2])N[*:1]; αMeF = C[C@](N)(Cc1ccccc1)C(=O)O; NMeQ = CN[C@@H](CCC(N)=O)C(=O)O; AEEA = NCCOCCOCC(=O)O; Aib = CC(C)(N)C(=O)O

B1: Peptide 295 (peptide)
peptide: H[Aib]HGS[αMeF]TSDVSK[Aib]LDSRAAK([AEEA-AEEA-γGlu-γGlu-C20 diacid])D[αMeF]VQ[Aib]IANT-NH2
B2: Peptide 324 (peptide)
peptide: HS[β‑dimethylGln]GS[αMeF]TSDVSK[αMeF]LDSRAAK([AEEA-AEEA-γGlu-C18 diacid])D[αMeF]VQ[Aib]IANT-NH2
modifications: N-terminus assumed
SMILES: CC[C@H](C)[C@H](NC(=O)C(C)(C)NC(=O)[C@H](CCC(N)=O)NC(=O)[C@@H](NC(=O)[C@](C)(Cc1ccccc1)NC(=O)[C@H](CC(=O)O)NC(=O)[C@H](CCCCNC(=O)COCCOCCNC(=O)COCCOCCNC(=O)CC[C@H](NC(=O)CCCCCCCCCCCCCCCCC(=O)O)C(=O)O)NC(=O)[C@H](C)NC(=O)[C@H](C)NC(=O)[C@H](CCCNC(=N)N)NC(=O)[C@H](CO)NC(=O)[C@H](CC(=O)O)NC(=O)[C@H](CC(C)C)NC(=O)[C@](C)(Cc1ccccc1)NC(=O)[C@H](CCCCN)NC(=O)[C@H](CO)NC(=O)[C@@H](NC(=O)[C@H](CC(=O)O)NC(=O)[C@H](CO)NC(=O)[C@@H](NC(=O)[C@](C)(Cc1ccccc1)NC(=O)[C@H](CO)NC(=O)CNC(=O)[C@@H](NC(=O)[C@H](CO)NC(=O)[C@@H](N)Cc1c[nH]cn1)C(C)(C)CC(N)=O)[C@@H](C)O)C(C)C)C(C)C)C(=O)N[C@@H](C)C(=O)N[C@@H](CC(N)=O)C(=O)N[C@H](C(N)=O)[C@@H](C)O
B3: Peptide 305 (peptide)
peptide: H[Aib]HGS[αMeF]TSDVSK[αMeF]LDSRAAK([AEEA-AEEA-γGlu-γGlu-C20 diacid])D[αMeF]VQ[Aib]IANT-NH2
modifications: N-terminus assumed
SMILES: CC[C@H](C)[C@H](NC(=O)C(C)(C)NC(=O)[C@H](CCC(N)=O)NC(=O)[C@@H](NC(=O)[C@](C)(Cc1ccccc1)NC(=O)[C@H](CC(=O)O)NC(=O)[C@H](CCCCNC(=O)COCCOCCNC(=O)COCCOCCNC(=O)CC[C@H](NC(=O)CC[C@H](NC(=O)CCCCCCCCCCCCCCCCCCC(=O)O)C(=O)O)C(=O)O)NC(=O)[C@H](C)NC(=O)[C@H](C)NC(=O)[C@H](CCCNC(=N)N)NC(=O)[C@H](CO)NC(=O)[C@H](CC(=O)O)NC(=O)[C@H](CC(C)C)NC(=O)[C@](C)(Cc1ccccc1)NC(=O)[C@H](CCCCN)NC(=O)[C@H](CO)NC(=O)[C@@H](NC(=O)[C@H](CC(=O)O)NC(=O)[C@H](CO)NC(=O)[C@@H](NC(=O)[C@](C)(Cc1ccccc1)NC(=O)[C@H](CO)NC(=O)CNC(=O)[C@H](Cc1c[nH]cn1)NC(=O)C(C)(C)NC(=O)[C@@H](N)Cc1c[nH]cn1)[C@@H](C)O)C(C)C)C(C)C)C(=O)N[C@@H](C)C(=O)N[C@@H](CC(N)=O)C(=O)N[C@H](C(N)=O)[C@@H](C)O
B4: Peptide 298 (peptide)
peptide: H[Aib]HGS[αMeF]TSDVSR[αMeF]LDSRAAK([AEEA-AEEA-γGlu-γGlu-C20 diacid])D[αMeF]VQ[Aib]IANT-NH2
modifications: N-terminus assumed
SMILES: CC[C@H](C)[C@H](NC(=O)C(C)(C)NC(=O)[C@H](CCC(N)=O)NC(=O)[C@@H](NC(=O)[C@](C)(Cc1ccccc1)NC(=O)[C@H](CC(=O)O)NC(=O)[C@H](CCCCNC(=O)COCCOCCNC(=O)COCCOCCNC(=O)CC[C@H](NC(=O)CC[C@H](NC(=O)CCCCCCCCCCCCCCCCCCC(=O)O)C(=O)O)C(=O)O)NC(=O)[C@H](C)NC(=O)[C@H](C)NC(=O)[C@H](CCCNC(=N)N)NC(=O)[C@H](CO)NC(=O)[C@H](CC(=O)O)NC(=O)[C@H](CC(C)C)NC(=O)[C@](C)(Cc1ccccc1)NC(=O)[C@H](CCCNC(=N)N)NC(=O)[C@H](CO)NC(=O)[C@@H](NC(=O)[C@H](CC(=O)O)NC(=O)[C@H](CO)NC(=O)[C@@H](NC(=O)[C@](C)(Cc1ccccc1)NC(=O)[C@H](CO)NC(=O)CNC(=O)[C@H](Cc1c[nH]cn1)NC(=O)C(C)(C)NC(=O)[C@@H](N)Cc1c[nH]cn1)[C@@H](C)O)C(C)C)C(C)C)C(=O)N[C@@H](C)C(=O)N[C@@H](CC(N)=O)C(=O)N[C@H](C(N)=O)[C@@H](C)O
B5: Peptide 302 (peptide)
peptide: H[Aib]HGS[αMeF]TSDVSK[αMeF]LDSRAAK([AEEA-AEEA-γGlu-γGlu-C20 diacid])D[αMeF]IA[Aib]IAET-NH2
B6: Peptide 296 (peptide)
peptide: H[Aib]HGS[αMeF]TSDVSK[Aib]LDSRAAK([AEEA-AEEA-γGlu-C18 diacid])D[αMeF]VQ[Aib]IANT-NH2
B7: Peptide 321 (peptide)
peptide: H[Aib]QGT[αMeF]TSDVSK[αMeF]LDSRAAK([AEEA-AEEA-γGlu-C18 diacid])D[αMeF]VQ[Aib]IANT-NH2
modifications: not fully specified
B8: Peptide 331 (peptide)
peptide: H[dS]QGS[αMeF]TSDVSK[αMeF]LDSRAAK([AEEA-AEEA-γGlu-C18 diacid])D[αMeF]VQ[Aib]IANT
B9: Peptide 322 (peptide)
peptide: H[Aib]QGS[αMeF]TSDVSK[αMeF]LDSRAAKD[αMeF]VQ[Aib]IANT-NH2
modifications: not fully specified (residue 20)
B10: Peptide 292 (peptide)
peptide: H[Aib]HGS[αMeF]TSDVSKYLDSRAAKDFVQWIANT-NH2
modifications: not fully specified (residue 20)
B11: Peptide 315 (peptide)
peptide: H[Aib]QGTFTSDVSK[αMeF]LDSRAAK([AEEA-AEEA-γGlu-C18 diacid])DFVQ[Aib]LVAT-NH2
modifications: not fully specified
B12: Peptide 300 (peptide)
peptide: H[Aib]HGS[αMeF]TSDVSK[αMeF]LDSRAAK([AEEA-AEEA-γGlu-C18 diacid])D[αMeF]VQ[Aib]IAET-NH2
modifications: N-terminus assumed
SMILES: CC[C@H](C)[C@H](NC(=O)C(C)(C)NC(=O)[C@H](CCC(N)=O)NC(=O)[C@@H](NC(=O)[C@](C)(Cc1ccccc1)NC(=O)[C@H](CC(=O)O)NC(=O)[C@H](CCCCNC(=O)COCCOCCNC(=O)COCCOCCNC(=O)CC[C@H](NC(=O)CCCCCCCCCCCCCCCCC(=O)O)C(=O)O)NC(=O)[C@H](C)NC(=O)[C@H](C)NC(=O)[C@H](CCCNC(=N)N)NC(=O)[C@H](CO)NC(=O)[C@H](CC(=O)O)NC(=O)[C@H](CC(C)C)NC(=O)[C@](C)(Cc1ccccc1)NC(=O)[C@H](CCCCN)NC(=O)[C@H](CO)NC(=O)[C@@H](NC(=O)[C@H](CC(=O)O)NC(=O)[C@H](CO)NC(=O)[C@@H](NC(=O)[C@](C)(Cc1ccccc1)NC(=O)[C@H](CO)NC(=O)CNC(=O)[C@H](Cc1c[nH]cn1)NC(=O)C(C)(C)NC(=O)[C@@H](N)Cc1c[nH]cn1)[C@@H](C)O)C(C)C)C(C)C)C(=O)N[C@@H](C)C(=O)N[C@@H](CCC(=O)O)C(=O)N[C@H](C(N)=O)[C@@H](C)O
B13: Peptide 304 (peptide)
peptide: H[Aib]HGS[αMeF]TSDVSK[αMeF]LDSRAAK([AEEA-AEEA-γGlu-γGlu-C20 diacid])D[αMeF]VQ[Aib]IANT-OH
B14: Peptide 318 (peptide)
peptide: H[Aib]QGTFTSDVSK[αMeF]LDSRAAK([AEEA-AEEA-γGlu-C18 diacid])DFVQWIANT-NH2
modifications: not fully specified
B15: Peptide 325 (peptide)
peptide: HS[NMeQ]GS[αMeF]TSDVSK[αMeF]LDSRAAK([AEEA-AEEA-γGlu-C18 diacid])D[αMeF]VQ[Aib]IANT-NH2
modifications: N-terminus assumed
SMILES: CC[C@H](C)[C@H](NC(=O)C(C)(C)NC(=O)[C@H](CCC(N)=O)NC(=O)[C@@H](NC(=O)[C@](C)(Cc1ccccc1)NC(=O)[C@H](CC(=O)O)NC(=O)[C@H](CCCCNC(=O)COCCOCCNC(=O)COCCOCCNC(=O)CC[C@H](NC(=O)CCCCCCCCCCCCCCCCC(=O)O)C(=O)O)NC(=O)[C@H](C)NC(=O)[C@H](C)NC(=O)[C@H](CCCNC(=N)N)NC(=O)[C@H](CO)NC(=O)[C@H](CC(=O)O)NC(=O)[C@H](CC(C)C)NC(=O)[C@](C)(Cc1ccccc1)NC(=O)[C@H](CCCCN)NC(=O)[C@H](CO)NC(=O)[C@@H](NC(=O)[C@H](CC(=O)O)NC(=O)[C@H](CO)NC(=O)[C@@H](NC(=O)[C@](C)(Cc1ccccc1)NC(=O)[C@H](CO)NC(=O)CNC(=O)[C@H](CCC(N)=O)N(C)C(=O)[C@H](CO)NC(=O)[C@@H](N)Cc1c[nH]cn1)[C@@H](C)O)C(C)C)C(C)C)C(=O)N[C@@H](C)C(=O)N[C@@H](CC(N)=O)C(=O)N[C@H](C(N)=O)[C@@H](C)O

Target: human GLP-1 receptor (human, UniProt P43220)
Assay: cell-based or functional assay

Point of comparison: B8, “hGLP-1R EC50 (pM)” value 62.6 pM. Against it:
- B1 — higher, 312 pM
- B2 — higher, 1330 pM
- B3 — higher, 211 pM
- B4 — higher, 75.5 pM
- B5 — higher, 151 pM
- B6 — higher, 64.1 pM
- B7 — lower, 22.6 pM
- B9 — higher, 68.3 pM
- B10 — lower, 28.7 pM
- B11 — lower, 18.1 pM
- B12 — lower, 19.7 pM
- B13 — higher, 239 pM
- B14 — lower, 55.2 pM
- B15 — higher, 929 pM

Target: human glucagon receptor (human, UniProt P47871)
Assay: cell-based or functional assay

Point of comparison: B14, “hGluc-R EC50 (pM)” value 12000 pM. Against it:
- B1 — higher, 17100 pM
- B2 — lower, 1930 pM
- B3 — lower, 155 pM
- B4 — lower, 573 pM
- B5 — lower, 271 pM
- B6 — lower, 3250 pM
- B7 — lower, 4400 pM
- B8 — lower, 66.6 pM
- B9 — higher, > 24700 pM
- B10 — lower, 20.4 pM
- B11 — lower, 5850 pM
- B12 — lower, 18.4 pM
- B13 — lower, 687 pM
- B15 — higher, > 25500 pM
